Results reported in patent US20140087995A1 (published 2014).
Numbered stars: 1 amine (or outer) side, 2 acyl side, 3 side chain; on linkers, the order of the positions; unused ones are H or OH. Bridge positions count the residues as written; N and C are the ends. Side chains are listed from the residue outwards. Ends that are not written are not given here. * marks the point of attachment. C20 diacid = O=C(O)CCCCCCCCCCCCCCCCCCC(=O)*; γGlu = O=C(O)[C@H](CCC(=O)[*:2])N[*:1]; AEEA = NCCOCCOCC(=O)O

T1: rat amylin receptor (rat calcitonin receptor + rat RAMP 3) (rat, UniProt P32214 25-516; Q9JJ73 23-147)
T1 construct: whole, on cells; Used as membranes prepared from the transfected cells; also called rAmylin-R; rat amylin 3(a) receptor
T1 sequence (looked up) 1: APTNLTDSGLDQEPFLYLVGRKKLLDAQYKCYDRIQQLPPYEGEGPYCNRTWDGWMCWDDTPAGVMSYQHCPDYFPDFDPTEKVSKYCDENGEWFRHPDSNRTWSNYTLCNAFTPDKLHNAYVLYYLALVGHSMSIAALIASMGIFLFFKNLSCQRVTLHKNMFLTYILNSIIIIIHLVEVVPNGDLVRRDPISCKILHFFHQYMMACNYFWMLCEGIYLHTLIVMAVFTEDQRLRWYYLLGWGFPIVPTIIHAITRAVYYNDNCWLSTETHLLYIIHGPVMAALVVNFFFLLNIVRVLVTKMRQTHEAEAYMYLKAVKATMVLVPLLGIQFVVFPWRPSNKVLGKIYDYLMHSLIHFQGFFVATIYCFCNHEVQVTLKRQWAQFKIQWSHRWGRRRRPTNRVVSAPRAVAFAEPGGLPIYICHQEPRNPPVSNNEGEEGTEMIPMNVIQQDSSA
T1 sequence (looked up) 2: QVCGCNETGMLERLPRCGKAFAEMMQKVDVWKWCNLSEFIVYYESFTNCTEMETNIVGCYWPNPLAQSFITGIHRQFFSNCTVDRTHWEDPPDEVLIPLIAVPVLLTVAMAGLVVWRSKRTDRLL

T2: rat calcitonin receptor (rat, UniProt P32214 25-516)
T2 construct: whole, on cells; Used as membranes prepared from the transfected cells; also called rCTR; rat calcitonin (a) receptor
T2 sequence (looked up): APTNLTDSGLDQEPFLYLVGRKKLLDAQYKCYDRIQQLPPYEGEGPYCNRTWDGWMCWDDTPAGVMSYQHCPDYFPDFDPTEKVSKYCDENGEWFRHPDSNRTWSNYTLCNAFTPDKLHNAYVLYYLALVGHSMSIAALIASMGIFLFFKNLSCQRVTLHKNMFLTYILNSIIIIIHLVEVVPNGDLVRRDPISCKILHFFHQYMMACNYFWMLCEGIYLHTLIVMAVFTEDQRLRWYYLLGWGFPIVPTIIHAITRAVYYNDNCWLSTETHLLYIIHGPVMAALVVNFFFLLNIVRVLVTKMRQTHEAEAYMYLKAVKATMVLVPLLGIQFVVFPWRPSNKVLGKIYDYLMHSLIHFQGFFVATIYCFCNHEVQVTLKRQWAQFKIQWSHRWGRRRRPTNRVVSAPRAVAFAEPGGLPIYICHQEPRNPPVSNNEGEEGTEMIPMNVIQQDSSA

T3: human calcitonin receptor (human, UniProt P30988 25-474)
T3 construct: whole, on cells; Used as membranes prepared from the transfected cells (Assay VII); also called hCTR; hCT
T3 sequence (looked up): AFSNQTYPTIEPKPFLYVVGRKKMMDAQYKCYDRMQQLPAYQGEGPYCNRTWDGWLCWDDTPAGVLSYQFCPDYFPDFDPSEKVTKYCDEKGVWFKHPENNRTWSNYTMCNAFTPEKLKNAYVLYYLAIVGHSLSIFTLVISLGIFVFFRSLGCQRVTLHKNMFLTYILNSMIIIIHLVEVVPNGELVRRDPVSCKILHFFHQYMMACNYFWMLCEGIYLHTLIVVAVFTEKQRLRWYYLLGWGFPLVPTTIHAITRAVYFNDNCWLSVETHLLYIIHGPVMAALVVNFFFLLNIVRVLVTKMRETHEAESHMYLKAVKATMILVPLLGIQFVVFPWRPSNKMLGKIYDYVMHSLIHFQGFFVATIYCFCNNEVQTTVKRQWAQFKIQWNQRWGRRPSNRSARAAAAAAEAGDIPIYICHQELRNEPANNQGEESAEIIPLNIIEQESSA


Columns and labels:
[1] = molecular target: T1, rat amylin receptor (rat calcitonin …); experiment: SPA competition with 125I-rat amylin, membranes of BHK cells with rat calcitonin receptor + rat RAMP3 (Assay VI)
[2] = molecular target: T2, rat calcitonin receptor; experiment: ratio IC50 rat calcitonin receptor / IC50 rat amylin receptor (Assays VIII and VI)
[3] = molecular target: T3, human calcitonin receptor; experiment: ratio IC50 human calcitonin receptor / IC50 human amylin receptor (Assays VII and V)
How it was run: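 Competition binding by SPA with cell membranes (35 ng/μL) and SPA beads in 50 mM Hepes pH 7.4 with 1 mM CaCl2, 5 mM MgCl2, 0.1% OA and 0.02% Tween20. Incubated 120 min at 25 °C with shaking, then counted.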

[4] = molecular target: T2, rat calcitonin receptor; experiment: SPA competition with 125I-calcitonin, membranes of BHK cells with rat calcitonin receptor (Assay VIII)

Binder | IC50 [1] | Ratio rCT/rAmylin binding [2] | Ratio hCT/hAmylin binding [3] | IC50 [4]
{C20 diacid-γGlu}-KCNTATCATQRLAEFLRHSSPNFGAILPSTNVGSETY-NH2 (disulfide 2-7; SMILES CC[C@H](C)[C@H](NC(=O)[C@H](C)NC(=O)CNC(=O)[C@H](Cc1ccccc1)NC(=O)[C@H](CC(N)=O)NC(=O)[C@@H]1CCCN1C(=O)[C@H](CO)NC(=O)[C@H](CO)NC(=O)[C@H](Cc1c[nH]cn1)NC(=O)[C@H](CCCNC(=N)N)NC(=O)[C@H](CC(C)C)NC(=O)[C@H](Cc1ccccc1)NC(=O)[C@H](CCC(=O)O)NC(=O)[C@H](C)NC(=O)[C@H](CC(C)C)NC(=O)[C@H](CCCNC(=N)N)NC(=O)[C@H](CCC(N)=O)NC(=O)[C@@H](NC(=O)[C@H](C)NC(=O)[C@@H]1CSSC[C@H](NC(=O)[C@H](CCCCN)NC(=O)CC[C@H](NC(=O)CCCCCCCCCCCCCCCCCCC(=O)O)C(=O)O)C(=O)N[C@@H](CC(N)=O)C(=O)N[C@@H]([C@@H](C)O)C(=O)N[C@@H](C)C(=O)N[C@@H]([C@@H](C)O)C(=O)N1)[C@@H](C)O)C(=O)N[C@@H](CC(C)C)C(=O)N1CCC[C@H]1C(=O)N[C@@H](CO)C(=O)N[C@H](C(=O)N[C@@H](CC(N)=O)C(=O)N[C@H](C(=O)NCC(=O)N[C@@H](CO)C(=O)N[C@@H](CCC(=O)O)C(=O)N[C@H](C(=O)N[C@@H](Cc1ccc(O)cc1)C(N)=O)[C@@H](C)O)C(C)C)[C@@H](C)O, Derivative of human amylin; also called compound 33) | 2.29 nM | 12.6 | 3.9 | 28.9 nM
{C20 diacid-γGlu}-KCNTATCATQRLAEFLRHSSPNFGAIPSSTNVGSETY-NH2 (disulfide 2-7; SMILES CC[C@H](C)[C@H](NC(=O)[C@H](C)NC(=O)CNC(=O)[C@H](Cc1ccccc1)NC(=O)[C@H](CC(N)=O)NC(=O)[C@@H]1CCCN1C(=O)[C@H](CO)NC(=O)[C@H](CO)NC(=O)[C@H](Cc1c[nH]cn1)NC(=O)[C@H](CCCNC(=N)N)NC(=O)[C@H](CC(C)C)NC(=O)[C@H](Cc1ccccc1)NC(=O)[C@H](CCC(=O)O)NC(=O)[C@H](C)NC(=O)[C@H](CC(C)C)NC(=O)[C@H](CCCNC(=N)N)NC(=O)[C@H](CCC(N)=O)NC(=O)[C@@H](NC(=O)[C@H](C)NC(=O)[C@@H]1CSSC[C@H](NC(=O)[C@H](CCCCN)NC(=O)CC[C@H](NC(=O)CCCCCCCCCCCCCCCCCCC(=O)O)C(=O)O)C(=O)N[C@@H](CC(N)=O)C(=O)N[C@@H]([C@@H](C)O)C(=O)N[C@@H](C)C(=O)N[C@@H]([C@@H](C)O)C(=O)N1)[C@@H](C)O)C(=O)N1CCC[C@H]1C(=O)N[C@@H](CO)C(=O)N[C@@H](CO)C(=O)N[C@H](C(=O)N[C@@H](CC(N)=O)C(=O)N[C@H](C(=O)NCC(=O)N[C@@H](CO)C(=O)N[C@@H](CCC(=O)O)C(=O)N[C@H](C(=O)N[C@@H](Cc1ccc(O)cc1)C(N)=O)[C@@H](C)O)C(C)C)[C@@H](C)O, Derivative of human amylin; also called compound 22) | 2.19 nM | 28.5 | 12.3 | 62.5 nM
K([AEEA-γGlu-C20 diacid])CNTATCATQRLANFLRHSSPNFGAIPSSTNVGSETY-NH2 (disulfide 2-7; N-terminus assumed; SMILES CC[C@H](C)[C@H](NC(=O)[C@H](C)NC(=O)CNC(=O)[C@H](Cc1ccccc1)NC(=O)[C@H](CC(N)=O)NC(=O)[C@@H]1CCCN1C(=O)[C@H](CO)NC(=O)[C@H](CO)NC(=O)[C@H](Cc1c[nH]cn1)NC(=O)[C@H](CCCNC(=N)N)NC(=O)[C@H](CC(C)C)NC(=O)[C@H](Cc1ccccc1)NC(=O)[C@H](CC(N)=O)NC(=O)[C@H](C)NC(=O)[C@H](CC(C)C)NC(=O)[C@H](CCCNC(=N)N)NC(=O)[C@H](CCC(N)=O)NC(=O)[C@@H](NC(=O)[C@H](C)NC(=O)[C@@H]1CSSC[C@H](NC(=O)[C@@H](N)CCCCNC(=O)COCCOCCNC(=O)CC[C@H](NC(=O)CCCCCCCCCCCCCCCCCCC(=O)O)C(=O)O)C(=O)N[C@@H](CC(N)=O)C(=O)N[C@@H]([C@@H](C)O)C(=O)N[C@@H](C)C(=O)N[C@@H]([C@@H](C)O)C(=O)N1)[C@@H](C)O)C(=O)N1CCC[C@H]1C(=O)N[C@@H](CO)C(=O)N[C@@H](CO)C(=O)N[C@H](C(=O)N[C@@H](CC(N)=O)C(=O)N[C@H](C(=O)NCC(=O)N[C@@H](CO)C(=O)N[C@@H](CCC(=O)O)C(=O)N[C@H](C(=O)N[C@@H](Cc1ccc(O)cc1)C(N)=O)[C@@H](C)O)C(C)C)[C@@H](C)O, Derivative of human amylin; also called compound 26) | 0.491 nM | 309 | 47.5 | 152 nM
{C20 diacid-γGlu}-KCNTATCATQRLAHFLRHSSPNFGAIPSSTNVGSETY-NH2 (disulfide 2-7; SMILES CC[C@H](C)[C@H](NC(=O)[C@H](C)NC(=O)CNC(=O)[C@H](Cc1ccccc1)NC(=O)[C@H](CC(N)=O)NC(=O)[C@@H]1CCCN1C(=O)[C@H](CO)NC(=O)[C@H](CO)NC(=O)[C@H](Cc1c[nH]cn1)NC(=O)[C@H](CCCNC(=N)N)NC(=O)[C@H](CC(C)C)NC(=O)[C@H](Cc1ccccc1)NC(=O)[C@H](Cc1c[nH]cn1)NC(=O)[C@H](C)NC(=O)[C@H](CC(C)C)NC(=O)[C@H](CCCNC(=N)N)NC(=O)[C@H](CCC(N)=O)NC(=O)[C@@H](NC(=O)[C@H](C)NC(=O)[C@@H]1CSSC[C@H](NC(=O)[C@H](CCCCN)NC(=O)CC[C@H](NC(=O)CCCCCCCCCCCCCCCCCCC(=O)O)C(=O)O)C(=O)N[C@@H](CC(N)=O)C(=O)N[C@@H]([C@@H](C)O)C(=O)N[C@@H](C)C(=O)N[C@@H]([C@@H](C)O)C(=O)N1)[C@@H](C)O)C(=O)N1CCC[C@H]1C(=O)N[C@@H](CO)C(=O)N[C@@H](CO)C(=O)N[C@H](C(=O)N[C@@H](CC(N)=O)C(=O)N[C@H](C(=O)NCC(=O)N[C@@H](CO)C(=O)N[C@@H](CCC(=O)O)C(=O)N[C@H](C(=O)N[C@@H](Cc1ccc(O)cc1)C(N)=O)[C@@H](C)O)C(C)C)[C@@H](C)O, Derivative of human amylin; also called compound 30) | 3.14 nM | 36.1 | 23.6 | 114 nM
K([AEEA-AEEA-γGlu-C20 diacid])CNTATCATQRLANFLRHSSPNFGAIPSSTNVGSETY-NH2 (disulfide 2-7; N-terminus assumed; SMILES CC[C@H](C)[C@H](NC(=O)[C@H](C)NC(=O)CNC(=O)[C@H](Cc1ccccc1)NC(=O)[C@H](CC(N)=O)NC(=O)[C@@H]1CCCN1C(=O)[C@H](CO)NC(=O)[C@H](CO)NC(=O)[C@H](Cc1c[nH]cn1)NC(=O)[C@H](CCCNC(=N)N)NC(=O)[C@H](CC(C)C)NC(=O)[C@H](Cc1ccccc1)NC(=O)[C@H](CC(N)=O)NC(=O)[C@H](C)NC(=O)[C@H](CC(C)C)NC(=O)[C@H](CCCNC(=N)N)NC(=O)[C@H](CCC(N)=O)NC(=O)[C@@H](NC(=O)[C@H](C)NC(=O)[C@@H]1CSSC[C@H](NC(=O)[C@@H](N)CCCCNC(=O)COCCOCCNC(=O)COCCOCCNC(=O)CC[C@H](NC(=O)CCCCCCCCCCCCCCCCCCC(=O)O)C(=O)O)C(=O)N[C@@H](CC(N)=O)C(=O)N[C@@H]([C@@H](C)O)C(=O)N[C@@H](C)C(=O)N[C@@H]([C@@H](C)O)C(=O)N1)[C@@H](C)O)C(=O)N1CCC[C@H]1C(=O)N[C@@H](CO)C(=O)N[C@@H](CO)C(=O)N[C@H](C(=O)N[C@@H](CC(N)=O)C(=O)N[C@H](C(=O)NCC(=O)N[C@@H](CO)C(=O)N[C@@H](CCC(=O)O)C(=O)N[C@H](C(=O)N[C@@H](Cc1ccc(O)cc1)C(N)=O)[C@@H](C)O)C(C)C)[C@@H](C)O, Derivative of human amylin; also called compound 25) | 3.48 nM | 37.7 | 56.5 | 131 nM
